From patent US7272508B2, “Small molecule mimetics of erythropoietin” (The Scripps Research Institute, priority 1996, dated 2007)
Values belong to the molecule of their own block, whether it stands above or below them. Positions of bridges follow the written chain, without caps; N, C: chain ends. No end group written: not given here.

T1: EBP (extracellular fragment of human EPO receptor, residues 1-225) (Homo sapiens, UniProt P19235)
T1 construct: consisting of residues 1-225, was expressed in Escherichia coli; made in house; host or cells: Escherichia coli
T1 sequence (P19235 25-249): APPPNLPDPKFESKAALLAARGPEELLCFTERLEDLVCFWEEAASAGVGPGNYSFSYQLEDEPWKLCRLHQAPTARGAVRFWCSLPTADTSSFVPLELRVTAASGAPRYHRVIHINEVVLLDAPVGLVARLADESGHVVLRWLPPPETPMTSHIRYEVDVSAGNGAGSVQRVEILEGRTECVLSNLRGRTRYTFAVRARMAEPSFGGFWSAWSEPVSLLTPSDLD

T2: EPO receptor (Homo sapiens, UniProt P19235)
T2 sequence (P19235 25-508): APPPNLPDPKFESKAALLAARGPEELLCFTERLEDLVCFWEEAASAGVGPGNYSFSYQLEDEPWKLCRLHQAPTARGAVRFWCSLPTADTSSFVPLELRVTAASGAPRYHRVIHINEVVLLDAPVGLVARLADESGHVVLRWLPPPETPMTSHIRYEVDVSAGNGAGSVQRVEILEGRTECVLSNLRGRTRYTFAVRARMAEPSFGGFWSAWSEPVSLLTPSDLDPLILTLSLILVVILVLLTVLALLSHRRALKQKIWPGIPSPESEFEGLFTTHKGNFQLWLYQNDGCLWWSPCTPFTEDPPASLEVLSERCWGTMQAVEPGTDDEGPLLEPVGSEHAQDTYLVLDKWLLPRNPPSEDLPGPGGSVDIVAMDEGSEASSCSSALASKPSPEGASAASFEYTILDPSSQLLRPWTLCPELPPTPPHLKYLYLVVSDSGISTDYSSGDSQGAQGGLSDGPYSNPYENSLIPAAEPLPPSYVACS

B1: EMP1 (EPO Mimetic Peptide 1) (peptide)
peptide: GGTYSCHFGPLTWVCKPQGG
modifications: disulfide 6-15
notes: also called RWJ 61233; peptide-2
B2: EPO binding protein (EBP), extracellular fragment of human EPO receptor, residues 1-225 (receptor, UniProt P19235 25-249, looked up)
chain: T1 sequence (P19235 25-249)
notes: range 1-225; they probably count on the mature receptor without signal peptide; Two EBP molecules stand in the asymmetric unit with two peptides; also called EBP1; EBP2

What was measured:
[1] = tested on: nascent red blood cell production; test: in vivo assays of nascent red blood cell production; details: mice; two different in vivo assays of nascent red blood cell production
[2] = target: T1, EBP (extracellular fragment of human EPO receptor, residues 1-225); test: DPDPB crosslinking of EBP in solution (peptide-dependent dimerization); format: biochemical; details: co-incubation of EMP1, DPDPB and EBP; no significant dimer in the absence of peptide
Procedure: To explore the interaction of EMP1 with EBP in solution we employed a bifunctionalsulphydryl reactive crosslinker DPDPB, [1,4-di-(2′-pyridyldithio propionamido) butane], in an attempt to stabilize a peptide-dependent dimeric structure. […] A dimeric EBP product is formed by co-incubation of EMP1, DPDPB and EBP. The amount of dimeric product increases with peptide concentration and no significant dimer product is observed in the absence of peptide. DPDPB-crosslinked products formed through disulfide-exchange reactions should be readily reversible by reduction as is seen for the covalently-linked EMP1-mediated dimer. […] The Cys^181 residues in D2 of the EBP dimer are 20.7 Å apart (Sγ-Sγ distance) which approximates the 16 Å length (and approximately 2 Å in bond length at each end) of the DPDPB cross-linker.

[3] = tested on: EPO responsive cells; test: phosphorylation events and cell cycle progression in EPO responsive cells; format: cell-based
[4] = tested on: cell lines engineered to be responsive to EPO; test: cellular proliferation of cell lines engineered to be responsive to EPO; format: cell-based
[5] = target: T2, EPO receptor; test: receptor binding assays, competition with EPO
[6] = target: B2; test: DPDPB crosslinking in solution; dimeric product increases with peptide concentration
[7] = target: the molecule itself; test: DPDPB sulphydryl crosslinking of EBP in solution

competition with EPO in receptor binding assays [5]: competes with EPO
Molecule: GGTYSCHFGPLTWVCKPQGG (disulfide 6-15 (inferred)) [EMP1]
erythropoietic effects [1]: significant erythropoietic effects
formation of dimeric EBP product [2]: mediates formation of a soluble EBP dimer complex in solution
cascade of phosphorylation events and cell cycle progression [3]: induce a similar cascade of phosphorylation events and cell cycle progression
induction of cellular proliferation [4]: induces cellular proliferation

Molecule: B1
binding result [6]: binds

Molecule: B2
binding result [7]: no binding
